Results taken from publication PMC8439582 (Nature structural & molecular biology, 2019).
Read-outs that look alike come from different tables or passages of the source.

B1: Tom6 (natural protein, S. cerevisiae, UniProt P33448 1-61, looked up)
chain: MDGMFAMPGAAAGAASPQQPKSRFQAFKESPLYTIALNGAFFVAGVAFIQSPLMDMLAPQL
B2: Tom22 with a C-terminal His-tag (natural protein, S. cerevisiae, UniProt P49334 1-152, looked up)
chain: MVELTEIKDDVVQLDEPQFSRNQAIVEEKASATNNDVVDDEDDSDSDFEDEFDENETLLDRIVALKDIVPPGKRQTISNFFGFTSSFVRNAFTKSGNLAWTLTTTALLLGVPLSLSILAEQQLIEMEKTFDLQSDANNILAQGEKDAAATAN
B3: Tom40 with a C-terminal Strep-tag (overexpressed, wild type) (natural protein, S. cerevisiae, UniProt P23644 1-387, looked up)
chain: MSAPTPLAEASQIPTIPALSPLTAKQSKGNFFSSNPISSFVVDTYKQLHSHRQSLELVNPGTVENLNKEVSRDVFLSQYFFTGLRADLNKAFSMNPAFQTSHTFSIGSQALPKYAFSALFANDNLFAQGNIDNDLSVSGRLNYGWDKKNISKVNLQISDGQPTMCQLEQDYQASDFSVNVKTLNPSFSEKGEFTGVAVASFLQSVTPQLALGLETLYSRTDGSAPGDAGVSYLTRYVSKKQDWIFSGQLQANGALIASLWRKVAQNVEAGIETTLQAGMVPITDPLMGTPIGIQPTVEGSTTIGAKYEYRQSVYRGTLDSNGKVACFLERKVLPTLSVLFCGEIDHFKNDTKIGCGLQFETAGNQELLMLQQGLDADGNPLQALPQL
B4: core TOM complex from S. cerevisiae (Tom40, Tom22, Tom5, Tom6, Tom7) (complex)
chain 1: B3 chain
chain 2: B2 chain
chain 3: MFGLPQQEVSEEEKRAHQEQTEKTLKQAAYVAAFLWVSPMIWHLVKKQWK
chain 4: B1 chain
chain 5: MSFLPSFILSDESKERISKILTLTHNVAHYGWIPFVLYLGWAHTSNRPNFLNLLSPLPSV
B5: Tom7 (natural protein, S. cerevisiae, UniProt P53507 1-60, looked up)
chain: B4 chain 5
B6: Tom5 (natural protein, S. cerevisiae, UniProt P80967 1-50, looked up)
chain: B4 chain 3

How the values were obtained:
[1] = biological target: B3; assay: cryo-EM structure
[2] = biological target: B3; assay: cryo-EM structure; remark: listed apart in the source
cryo-EM structure = biological target: the molecule itself; assay: cryo-EM structure
SEC = biological target: the molecule itself; assay: SEC
[3] = biological target: B2; assay: cryo-EM structure

Q: Does B1 bind [1]?
A: Result: binds

Q: Does B2 bind [2]?
A: Result: binds

Q: Does B3 bind (cryo-EM structure)?
A: Result: binds

Q: How did the “stoichiometry N” value (SEC) turn out when B4 was run?
A: Its value is 2.

Q: Does B5 bind [2]?
A: Result: binds

Q: Does B6 bind [2]?
A: Result: binds

Q: Does B6 bind [3]?
A: Result: binds
